In paper PMC7224192, “MYC transcription activation mediated by OCT4 as a mechanism of resistance to 13-cisRA-mediated differentiation in neuroblastoma”:

How the values were obtained:
OCT4 [1] = biological target: T1, OCT4 (human, UniProt Q01860 1-360); test: EMSA; mono- and di-OCT4 complexes; 20 fmol probe; Panomics EMSA Gel Shift Kit per manufacturer; OCT4 0.5 mg as printed (likely ug), biotin probe 20 fmol; buffer, pH and temperature not stated; conditions: protein: commercial; label: biotin at 5' end
OCT4 [2] = biological target: T1, OCT4; test: EMSA; mono-OCT4 complex; 20 fmol probe; Panomics EMSA Gel Shift Kit per manufacturer; OCT4 0.5 mg as printed (likely ug), biotin probe 20 fmol; buffer, pH and temperature not stated; conditions: protein: commercial; label: biotin at 5' end

T1 sequence (Q01860 whole entry): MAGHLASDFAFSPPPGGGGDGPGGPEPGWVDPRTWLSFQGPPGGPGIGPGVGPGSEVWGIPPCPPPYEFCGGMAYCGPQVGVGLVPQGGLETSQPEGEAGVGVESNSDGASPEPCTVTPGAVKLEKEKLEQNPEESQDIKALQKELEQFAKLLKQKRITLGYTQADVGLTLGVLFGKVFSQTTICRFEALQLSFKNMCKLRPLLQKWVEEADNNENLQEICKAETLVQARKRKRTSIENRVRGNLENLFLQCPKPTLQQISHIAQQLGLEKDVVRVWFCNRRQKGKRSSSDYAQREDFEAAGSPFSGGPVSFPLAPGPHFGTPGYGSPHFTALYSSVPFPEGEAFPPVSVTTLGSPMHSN

Row | Binder | binding result (OCT4 [1]) | binding result (OCT4 [2])
1 | Biotin-MYC-1209/-1166 WT (OBS1) (dsDNA) DNA 1: CTGTGCATACATAATGCATAATACATGACTCCCCCCAACAAATGC DNA 2: GCATTTGTTGGGGGGAGTCATGTATTATGCATTATGTATGCACAG | binds | 
2 | Biotin-MYC-1173/-1145 WT (OBS2) (dsDNA) DNA 1: ACAAATGCAATGGGAGTTTATTCATAAC DNA 2: GTTATGAATAAACTCCCATTGCATTTGT |  | binds
3 | Biotin-MYC-1209/-1140 WT (OBS1+OBS2) (dsDNA) DNA 1: CTGTGCATACATAATGCATAATACATGACTCCCCCCAACAAATGCAATGGGAGTTTATTCATAACGCGCT DNA 2: AGCGCGTTATGAATAAACTCCCATTGCATTTGTTGGGGGGAGTCATGTATTATGCATTATGTATGCACAG | binds | 
